Results on 24 molecules are retold here after patent US20260242478A1 (published 2026).

Test [1] has as its target T1, Anti-CD28 scFv (VH - linker 1 - VL) (biotinylated (site not stated)).
T1 construct: Biotinylated and captured on neutravidin-coated plates in the phage panning ELISA
Kind of test: phage ELISA; biotinylated anti-CD28 scFv on neutravidin plate, clonal phage supernatant, anti-M13-HRP detection.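 Further: before phage addition, wells were pretreated with soluble CD28 protein in blocking buffer, or with blocking buffer only as the comparison, then phage were added without washing.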 Background: ELISA stands for enzyme-linked immunosorbent assay.

Test [2] concerns the target T1, Anti-CD28 scFv (VH - linker 1 - VL). Briefly: phage ELISA; biotinylated anti-CD28 scFv on neutravidin plate, wells pre-incubated with soluble CD28 as competitor, anti-M13-HRP detection.
Protocol: Clonal phage were harvested as crude supernatants and screened via standard enzyme linked immunosorbent assays (ELISAs). […] Prior to the addition of clonal phage, wells were incubated with blocking buffer and CD28 soluble protein or blocking buffer alone. Without washing or aspirating, clonal phage supernatants were then added to the wells and incubated for a short time. Wells were then washed followed by detection of bound phage using a horse radish peroxidase conjugated anti-M13 antibody.
A further test addresses anti-CD28 Fab. Kind of test: competition ELISA, peptide titrated 0-100 uM against 1 nM anti-CD28 Fab, plate-bound CD28 as competitor.
Test [3] concerns the target anti-CD28 scFv (VH - linker 1 - VL) (biotinylated (site not stated)). Kind of test: same phage ELISA, wells pre-incubated with soluble CD28 (competitor).

Where no end group is shown, it is not given here.

T1 sequence (scFv, as listed by the source): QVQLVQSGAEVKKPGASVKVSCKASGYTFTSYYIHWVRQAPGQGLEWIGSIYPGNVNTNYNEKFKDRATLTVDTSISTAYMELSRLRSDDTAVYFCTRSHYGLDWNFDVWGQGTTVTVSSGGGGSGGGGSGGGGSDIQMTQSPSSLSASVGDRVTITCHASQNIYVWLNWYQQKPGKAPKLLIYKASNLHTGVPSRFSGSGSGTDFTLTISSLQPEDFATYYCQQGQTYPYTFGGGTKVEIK
Chain of anti-CD28 Fab (VH, as listed by the source, chain 1 of 2): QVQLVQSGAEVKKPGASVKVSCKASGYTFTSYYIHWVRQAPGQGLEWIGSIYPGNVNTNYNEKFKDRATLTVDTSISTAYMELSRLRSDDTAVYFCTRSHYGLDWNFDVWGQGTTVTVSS
Chain of anti-CD28 Fab (VL, as listed by the source, chain 2 of 2): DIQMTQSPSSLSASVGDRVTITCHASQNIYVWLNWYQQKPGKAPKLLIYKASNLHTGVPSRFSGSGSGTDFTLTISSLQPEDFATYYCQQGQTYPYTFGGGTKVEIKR
Chain of anti-CD28 scFv (VH - linker 1 - VL) (biotinylated (site not stated)) (scFv, as listed by the source): as the sequence (scFv, as listed by the source) above

B1: Phage-423 clonal phage peptide INLCPTPMWNRCWL (peptide)
peptide: INLCPTPMWNRCWL
notes: tested as crude clonal phage supernatant
Regarding B1, the “CD28 scFv signal” value in test [1] worked out at 0.103. The “CD28 scFv signal in presence of CD28” value in test [2] stood at 0.101.

B2: Phage-417 clonal phage peptide IYWCPTAMWNRCSA (peptide)
peptide: IYWCPTAMWNRCSA
notes: as for B1
For the molecule B2, in test [1], the “CD28 scFv signal” value stood at 0.817. Further, the “CD28 scFv signal in presence of CD28” value in test [2] stood at 0.073.

B3: Phage-418 clonal phage peptide MYWCPKYMWSECFA (peptide)
peptide: MYWCPKYMWSECFA
notes: as for B1
Regarding B3, the “CD28 scFv signal” value in test [1] is 0.741. In test [2], the “CD28 scFv signal in presence of CD28” value turned out to be 0.099.

What is called IC50 is the concentration that gives 50% inhibition. Higher therefore signals weaker potency. The molecule ACAAGASYAWPYCL [Peptide-99] gave an IC50 with anti-CD28 Fab of 21 µM. This lies in the double-digit micromolar range.

With SCAAGASYAAPYCL [Peptide-103], in the test with anti-CD28 Fab, the IC50 is > 100 µM.

For SCAAGASAAWPYCL [Peptide-102], the IC50 with anti-CD28 Fab is > 100 µM.

Molecule SCAAGAAYAWPYCL [Peptide-101] showed a 50% inhibitory concentration (IC50) in the test with anti-CD28 Fab of 7.42 µM.

Turning to SCAAGASYAWAYCL [Peptide-104], in the test with anti-CD28 Fab, the concentration for half-maximal inhibition (IC50) is > 100 µM.

For SCAAAASYAWPYCL [Peptide-100], the concentration for half-maximal inhibition (IC50) with anti-CD28 Fab is > 100 µM.

Regarding SCAAGASYAWPYCA [Peptide-106], the IC50 with anti-CD28 Fab turned out to be 76.4 µM.

For the molecule SCAAGASYAWPACL [Peptide-105], in the test with anti-CD28 Fab, the concentration for half-maximal inhibition (IC50) worked out at 13 µM.

In the case of ACAGHAWQYINKCL [Peptide-107], in the test with anti-CD28 Fab, the IC50 was > 100 µM.

Turning to YCAGHAWQAINKCL [Peptide-112], the IC50 with anti-CD28 Fab was > 100 µM.

Take YCAGAAWQYINKCL [Peptide-109]: the half-maximal inhibitory concentration (IC50) with anti-CD28 Fab was > 100 µM.

For YCAAHAWQYINKCL [Peptide-108], the IC50 with anti-CD28 Fab was > 100 µM.

In the test with anti-CD28 Fab, YCAGHAWQYINKCA [Peptide-116] yielded an IC50 of 98.6 µM.

In the test with anti-CD28 Fab, YCAGHAWQYANKCL [Peptide-113] yielded an IC50 of 102 µM.

As to YCAGHAWAYINKCL [Peptide-111], the IC50 with anti-CD28 Fab is 12.3 µM.

For the molecule YCAGHAAQYINKCL [Peptide-110], the half-maximal inhibitory concentration (IC50) with anti-CD28 Fab came to 3.16 µM.

For the molecule YCAGHAWQYIAKCL [Peptide-114], in the test with anti-CD28 Fab, the half-maximal inhibitory concentration (IC50) was 5.49 µM.

On to YCAGHAWQYINACL [Peptide-115], for which the IC50 with anti-CD28 Fab was > 100 µM.

B4: Phage-424 clonal phage peptide ITQCPSTMWNRCSV (peptide)
peptide: ITQCPSTMWNRCSV
notes: as for B1
On to B4, for which the “CD28 scFv signal” value in test [1] turned out to be 0.098. The “CD28 scFv signal in presence of CD28” value in test [2] worked out at 0.108.

B5: Phage-422 clonal phage peptide MYWCPINMWDYCYA (peptide)
peptide: MYWCPINMWDYCYA
notes: as for B1
On to B5, for which, in test [1], the “CD28 scFv signal” value came to 0.109. The “CD28 scFv signal in presence of CD28” value in test [2] is 0.088.

B6: Phage-29 (peptide, not shown: large carriers)
peptide: MDWCPRDLWVHCFA
modifications: cysteine pairing not given here; also: fused to phage pIII, linker not given here
notes: Clonal phage supernatant
B6: in test [3], the “CD28 scFv signal in presence of CD28” value is 0.179.
